The experiment deals with mp2k6_human MAP2K6 (UniProt P52564).
Chain of UniProt P52564 (P52564 whole entry): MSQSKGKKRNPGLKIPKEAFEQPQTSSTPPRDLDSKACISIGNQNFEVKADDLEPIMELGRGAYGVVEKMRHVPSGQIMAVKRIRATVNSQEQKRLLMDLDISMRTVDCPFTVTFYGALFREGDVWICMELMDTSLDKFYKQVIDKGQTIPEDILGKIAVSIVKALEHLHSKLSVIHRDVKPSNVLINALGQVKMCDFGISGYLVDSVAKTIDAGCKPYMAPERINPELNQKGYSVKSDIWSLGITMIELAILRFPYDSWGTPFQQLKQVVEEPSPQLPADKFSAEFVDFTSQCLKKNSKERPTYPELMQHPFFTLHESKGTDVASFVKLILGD

In the case of “Leucine-rich repeat serine/threonine-protein kinase 2 (Homo sapiens), Q5S007 R1441C”, the “effect of a mutation on the interaction” value is recorded as “increasing interaction”.

For the origin of these results see IntAct's records for PubMed 20067578.
